Experimental data reported in PMC7955116, “The FlgN chaperone activates the Na^+-driven engine of the Salmonella flagellar protein export apparatus” (Communications Biology, 2021).

B1: His-FlgN (natural protein)
chain: MTRLSEILDQMTTVLNDLKTVMDAEQQQLSVGQINGSQLQRITEEKSSLLATLDYLEQQRRLEQNAQRSANDDIAERWQAITEKTQHLRDLNQHNGWLLEGQIERNQQALEVLKPHQEPTLYGADGQTSVSHRGGKKISI
notes: FlgN of Salmonella enterica serovar Typhimurium; source: E. coli BL21 (DE3) Star, in lysate or purified (Ni-NTA)
B2: GST-FliJ(Δ13–24) (natural protein)
chain: MAQHGALETLKDLGEMRRGCQQAEEQLKMLIDYQNEYRSNLNTDMGNGIASNRWINYQQFIQTLEKAIEQHRLQLTQWTQKVDLALKSWREKKQRLQAWQTLQDRQTAAALLAENRMDQKKMDEFAQRAAMRKPE
notes: FliJ of Salmonella enterica serovar Typhimurium with residues 13-24 deleted; also called GST-J(Δ13–24)

Legend:
[1] = molecular target: T1, GST-FliJ (Salmonella enterica serovar Typhimurium, UniProt P0A1K1 1-147); assay: SPR; GST-FliJ or GST-FliJ(Δ13–24) captured through immobilised anti-GST antibody on a CM5 chip; His-FlgN flowed over at 20 µl/min; 10 mM HEPES pH 7.4, 0.15 M NaCl, 3 mM EDTA, 0.005% Surfactant P20; 25 °C; steady-state analysis, 1 to 1 binding model; details: both partners purified
T1 construct: FliJ, flagellar export protein of Salmonella enterica serovar Typhimurium; also called GST-J; source: Salmonella MMHI0117, over-produced, in lysate

[2] = molecular target: B1; assay: as above; details: both partners purified

| Binder | Kd [1] [µM] | Kd [2] [µM] |
| --- | --- | --- |
| B1 | 27.4 ± 13 | – |
| B2 | – | 7.74 ± 0.12 |
